Residue numbers refer to the chain shown, from its start. Names and notes keep the numbering of the source.
B1: F5111 antibody (antibody, V domains shown)
VH: QLQLQESGPGLVKPSQTLSLTCTVSGGSISSGGYYWSWIRQHPGKGLEWIGYIYYSGSTYYNPSLKSRVTISVDTSKNQFSLKLSSVTAADTAVYYCARTPTVTGDWFDPWGRGTLVTVSS
VL: NFMLTQPHSVSESPGKTVTISCTRSSGSIASNYVQWYQQRPGSSPTTVIYEDNQRPSGVPDRFSGSIDSSSNSASLTISGLKTEDEADYYCQSYDSSNVVFGGGTKLTVL
notes: human IgG1 constant heavy chain; human lambda constant chain; human IgG1 lambda; anti-hIL-2; also called F5111 Ab; F5111 human immunoglobulin G1 (IgG1) antibody; source: HEK 293F, transient co-transfection of HC and LC plasmids, purified (protein G, SEC); copies: 2 + 2
B2: F5111.2 Antibody (N297A) (antibody, V domains shown)
VH: B1 VH with Y55K, T59A, N62S
VL: B1 VL with S93T, S97I, N98D, V100Y
notes: as the VH of m21 (F5111.2; human IgG1 constant heavy chain with N297A in the Fc region; 297 is EU numbering); as the VL of m21 (F5111.2); human lambda constant chain; in all studies the F5111.2 antibody includes N297A; the isotype platform is stated for F5111 only; source: HEK 293F, transient co-transfection, purified (protein G, SEC); copies: 2 + 2

Experiments:
[1] = target: T1, yeast-displayed hIL-2 (residues 1-133) (human, UniProt P60568); test: flow cytometry on cells; yeast surface display: hIL-2 or mIL-2 displayed on yeast (Aga2 fusion); serial dilutions of recombinant F5111 antibody, 2 hours at room temperature in PBE (PBS, 0.1% BSA, 1 mM EDTA); detected with anti-human IgG Fc APC; first-order binding model; conditions: one partner purified
T1 construct: human interleukin-2, residues 1-133; a 3C protease site lies between Aga2 and the cytokine; not shown: Aga2 (yeast agglutinin protein), N-terminal, kept

[2] = target: T2, yeast-displayed mIL-2 (residues 1-149) (Mus musculus, UniProt P04351); test: as above; conditions: one partner purified
T2 construct: mouse interleukin-2, residues 1-149; a 3C protease site lies between Aga2 and the cytokine; also called mouse IL-2; not shown: Aga2 (yeast agglutinin protein), N-terminal, kept

[3] = target: T3, Biotinylated human IL-2 (Homo sapiens, UniProt P60568, biotin on the biotin acceptor peptide (BirA ligase)); test: BLI; biotinylated hIL-2, hIL-2Rα or hIL-2Rβ immobilised on streptavidin biosensors; serial dilutions of analyte in PBSA (PBS pH 7.2, 0.1% BSA); 300 s association, 600 s dissociation; equilibrium titration, first-order fit; F5111 IC LN25 and LN35 as SEC peak P3, LN15 as majority peak; cytokine/antibody complexes pre-formed at 1:1 molar ratio, 60 minutes at 37°C; conditions: both partners purified
T3 construct: human interleukin-2; limits not restated for this construct (hIL-2 is residues 1-133 in the other constructs); the hexahistidine tag follows the BAP; also called biotinylated hIL-2; hIL-2 (immobilised); source: HEK 293F (gWiz vector), purified (Ni-NTA, SEC), biotinylated with BirA
T3 sequence (P60568 21-153): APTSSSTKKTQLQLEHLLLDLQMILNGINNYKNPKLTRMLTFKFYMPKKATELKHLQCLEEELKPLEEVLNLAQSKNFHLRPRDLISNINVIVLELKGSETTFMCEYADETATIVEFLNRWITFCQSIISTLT

T1 sequence (P60568 21-153): as above
T2 sequence (P04351 21-169): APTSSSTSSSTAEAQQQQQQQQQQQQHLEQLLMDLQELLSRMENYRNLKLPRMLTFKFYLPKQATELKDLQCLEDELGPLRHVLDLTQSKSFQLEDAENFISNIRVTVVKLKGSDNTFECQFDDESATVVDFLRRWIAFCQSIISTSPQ

| binding result [1] | binding result [2] | binding result [3] | Binder |
| --- | --- | --- | --- |
| binds | no binding | binds | B1 |
|  |  | binds | B2 |

Source: article PMC9631798, “Engineered human cytokine/antibody fusion proteins expand regulatory T cells and confer autoimmune disease protection” (Cell reports, 2022)
